US10308692B2, “Variants of GAL2 transporter and their uses” (Johann Wolfgang Goethe-Universität Frankfurt, priority 2014, dated 2019)

System: AFY10X
Assay: epPCR-screening by replica-plating on xylose plus glucose media
Type: cell-based, Saccharomyces cerevisiae
Conditions: media with 1% xylose and increasing amounts of glucose (up to 5%)
Source text: Mutants of GAL2 were created using error-prone PCR (epPCR) and then screened in AFY10X as described in Farwick et al. (2014). This method is faster than evolutionary engineering experiments and more often generates multiple mutations per ORF that might have a unique combined effect. On the downside, there might be more silent mutations among the increased number of mutations which might aggravate the identification of the relevant mutations in each clone. The GAL2 ORF was amplified in an epPCR with short amplification primers, applying various mutation rates, and the purified fragments then again amplified for recombinational cloning in a second PCR. Functional plasmids were in vivo assembled from PCR fragments and linearized p426H7 vector directly in the screening strain AFY10X. Transformants were plated out on selective SCE2 plates and subsequently screened. Colonies were tested for improved growth on media with 1% xylose and increasing amounts of glucose (up to 5%) by replica-plating. Seven clones were selected and grown in SCE2 ura^− leu^−+G418+2-DOG and samples of these cultures streaked out on plates for comparison and to obtain single colonies. Five of these seven clones were confirmed to grow on xylose glucose media. The plasmids of two clones were successfully isolated as described (yeast DNA was digested with EcoRI) and sequenced.

B1: Gal2_ep3.3: Gal2 epPCR clone with mutations T219S M255L R267C L299S N346I E528D (protein, UniProt P13181 1-574, looked up, variant T219S M255L R267C L299S N346I E528D)
Galactose transporter: MAVEENNMPVVSQQPQAGEDVISSLSKDSHLSAQSQKYSNDELKAGESGSEGSQSVPIEIPKKPMSEYVTVSLLCLCVAFGGFMFGWDTGTISGFVVQTDFLRRFGMKHKDGTHYLSNVRTGLIVAIFNIGCAFGGIILSKGGDMYGRKKGLSIVVSVYIVGIIIQIASINKWYQYFIGRIISGLGVGGIAVLCPMLISEIAPKHLRGTLVSCYQLMISAGIFLGYCTNYGTKSYSNSVQWRVPLGLCFAWSLFLIGALTLVPESPCYLCEVNKVEDAKRSIAKSNKVSPEDPAVQAESDLIMAGIEAEKLAGNASWGELFSTKTKVFQRLLMGVFVQMFQQLTGINYFFYYGTVIFKSVGLDDSFETSIVIGVVNFASTFFSLWTVENLGHRKCLLLGAATMMACMVIYASVGVTRLYPHGKSQPSSKGAGNCMIVFTCFYIFCYATTWAPVAWVITAESFPLRVKSKCMALASASNWVWGFLIAFFTPFITSAINFYYGYVFMGCLVAMFFYVFFFVPETKGLSLDEIQELWEEGVLPWKSEGWIPSSRRGNNYDLEDLQHDDKPWYKAMLE
Q: B1 was tested. Which “growth on medium (xylose + glucose)” value did it give?
A: 1 + 3
